This note sets out measurements from patent US20150191709, “MODIFIED HELICASES” (OXFORD NANOPORE TECHNOLOGIES LIMITED, published 2015).

The target of series [1] is Hel308 Mbu-E284Faz E284Faz (Methanococcoides burtonii) (UniProt Q12WZ6). To be noted: four nitroindoles between SEQ 155 and SEQ 154; nanopore; 100 nM, 960 mM KCl, 10 mM MgCl2, 1 mM ATP.
The target in series [2] is Heat treated Hel308 Mbu-E284Faz E284Faz (Methanococcoides burtonii) (UniProt Q12WZ6). To be noted: four nitroindoles between SEQ 155 and SEQ 154; nanopore; 500 nM, 960 mM KCl, 10 mM MgCl2, 1 mM ATP.
Series [3] concerns the target T1, Hel308 Mbu(E284C/S615C)-bismaleimidePEG11 (Methanococcoides burtonii, UniProt Q12WZ6 SEQ:1-760, E284C/S615C).
T1 sequence: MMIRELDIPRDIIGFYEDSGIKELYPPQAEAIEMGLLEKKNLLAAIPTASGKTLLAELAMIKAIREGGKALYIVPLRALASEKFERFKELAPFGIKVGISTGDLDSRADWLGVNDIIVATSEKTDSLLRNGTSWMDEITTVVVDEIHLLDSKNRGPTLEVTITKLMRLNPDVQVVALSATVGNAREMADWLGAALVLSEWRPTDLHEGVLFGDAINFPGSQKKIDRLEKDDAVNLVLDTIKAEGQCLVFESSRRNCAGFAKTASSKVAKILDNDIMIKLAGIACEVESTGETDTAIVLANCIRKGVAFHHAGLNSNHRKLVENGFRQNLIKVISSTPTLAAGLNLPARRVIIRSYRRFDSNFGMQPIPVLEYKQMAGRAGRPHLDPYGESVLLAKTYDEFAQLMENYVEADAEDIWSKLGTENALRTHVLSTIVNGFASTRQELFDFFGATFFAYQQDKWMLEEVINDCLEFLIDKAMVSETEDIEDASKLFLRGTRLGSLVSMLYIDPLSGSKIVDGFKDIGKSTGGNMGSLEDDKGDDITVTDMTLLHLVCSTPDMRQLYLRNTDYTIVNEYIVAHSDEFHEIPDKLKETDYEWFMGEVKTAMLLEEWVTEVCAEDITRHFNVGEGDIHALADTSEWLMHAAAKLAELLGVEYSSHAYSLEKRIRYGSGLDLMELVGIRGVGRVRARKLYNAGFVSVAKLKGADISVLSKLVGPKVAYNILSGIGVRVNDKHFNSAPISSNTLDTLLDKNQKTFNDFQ
Put plainly: fluorescence unwinding; increased processivity; 400 mM NaCl, 1 mM ATP, 10 mM MgCl2. Particulars: tags: C284 and C615 crosslinked by bismaleimidePEG11 (closed); 3' ssDNA overhang, 80 and 33 bp duplex sections. An excerpt:
(§1) The fluorescent probe is designed in such a way that its 5′ and 3′ ends are self-complementary and thus form a kinetically-stable hairpin once displaced, preventing the probe from re-annealing to the template strand (FIG. 3 section D). Upon formation of the hairpin product, the FAM is brought into the vicinity of the BHQ-1 and its fluorescence is quenched. A processive enzyme, capable of displacing the 80 mer “blocker” (SEQ ID NO: 111) and fluorescent (SEQ ID NO: 112, labelled with a carboxyfluorescein (FAM) at its 5′ end a black-hole quencher (BHQ-1) at its 3′ end) strands will therefore lead to a decrease in fluorescence over time. However, if the enzyme has a processivity of less than 80 nt it would be unable to displace the fluorescent strand (SEQ ID NO: 112, labelled with a carboxyfluorescein (FAM) at its 5′ end a black-hole quencher (BHQ-1) at its 3′ end) and, therefore, the “blocker” strand (SEQ ID NO: 111) would reanneal to the major bottom strand (FIG. 3 section E, SEQ ID NO: 110).

Series [4] has as its target T2, Hel308 Mbu(E284C/S615C)-bismaleimidePEG3 (Methanococcoides burtonii, UniProt Q12WZ6 SEQ:1-760, E284C/S615C).
T2 sequence: T1 sequence
The series is described as above. To be noted: tags: C284 and C615 crosslinked by bismaleimidePEG3 (closed); 3' ssDNA overhang, 80 and 33 bp duplex sections.
Source text: as §1

For the molecule 3.6 kb DNA, the figures for the activity (% movements reaching polyT) in series [1] and in series [2] were 28 and 71, respectively.

B1: 80 bp blocker processivity substrate (dsDNA)
DNA 1: TCGCTGCTCCACAGGTCTCAGCTTGAGCAGCGAAAATAAGAACATTATGATCAGTAGGAGCACTACGACCTTTGTTCTGGTGCTCGTCCGGGCGCCCAAAGTGGAGCGAGTGCCCCC
DNA 2: GCACTCGCTCCACTTTGGGCGCCCGGACGAGCACCAGAACAAAGGTCGTAGTGCTCCTACTGATCATAATGTTCTTATTT
DNA 3: TCGCTGCTCAAGCTGAGACCTGTGGAGCAGCGA
Consider B1, for which the binding result in series [3] and in series [4] was “binds” each time.
